Experimental data published in publication PMC9758051.

Tests used:
endogenous metal (Zn2+) = experiment: mass spectrometry (MS) of receptor-mini-Gs complex; conditions: metal-binding read on the tβ1AR-mini-Gs complex; mean ± s.d. from three independent experiments; read off a plot
[1] = biological target: turkey β1-adrenergic receptor, engineered thermostabilised construct (modified β44-m23) (turkey (M. gallopavo)) (UniProt P07700); experiment: native MS; tβ1AR 5 μM with mini-Gs 6 μM, isoprenaline derivative 5 at 250 μM
[2] = biological target: turkey β1-adrenergic receptor, engineered thermostabilised construct (modified β44-m23) (turkey (M. gallopavo)) (UniProt P07700); experiment: native MS; tβ1AR 5 μM with mini-Gs 6 μM, 1-phenyl-2[(propan-2-yl)amino]ethan-1-ol 3 at 250 μM
[3] = biological target: turkey β1-adrenergic receptor, engineered thermostabilised construct (modified β44-m23) (turkey (M. gallopavo)) (UniProt P07700); experiment: native MS; tβ1AR 5 μM with mini-Gs 6 μM, orciprenaline 2 at 250 μM
[4] = biological target: tβ1AR variant with alanine mutations on TM5 (E233A and E236A) (turkey (M. gallopavo)) (UniProt P07700); experiment: native MS; tβ1AR with mini-Gα at 1:1.2 molar ratio, 4 °C, at least 20 min, coupling buffer (10 mM HEPES, 10 mM Tris-HCl pH 7.4, 200 mM NaCl, 1 mM MgCl2, 5 mM GDP, 0.05% DDM) with isoprenaline 1 at 25 μM

| other: inhibition of metal-binding (%) (endogenous metal (Zn2+)) | percent attenuation of mini-Gs coupling against isoprenaline 1 [1] [%] | percent attenuation of mini-Gs coupling against isoprenaline 1 [2] [%] | percent reduction of mini-Gs coupling against isoprenaline 1 [3] [%] | percent attenuation of coupling against wild-type tβ1AR [4] [%] | Substance |
| --- | --- | --- | --- | --- | --- |
| 11 | – | – | – | – | turkey β1-adrenergic receptor, engineered thermostabilised construct (modified β44-m23) (from UniProt P07700) E285A; H286A |
| – | 75 | 90 | 60 | 21.2 | mini-Gs construct R414, engineered minimal Gα subunit (engineered Gαs) |
